Measured values taken from US20130157959.

Biological target: in vitro translated 35S-labelled p53 (wild-type) (UniProt P04637)

Substance: GST-Hades RING-mutant peptide (C302S/C305S)
- in vitro ubiquitination of p53 with E1, E2 (UbcH5c) and His-ubiquitin, anti-p53 immunoblot: The p53 ubiquitination was only induce by Hades
